Assay results as given in patent US20050032689A1, “Methods for treatment or diagnosis of disease or disorders associated with an APB domain” (New York University, priority 1994, published 2005).

Target: T1, EGF receptor (Homo sapiens, UniProt P00533)
T1 construct: expressed in transfected cells; host or cells: HER14 (NIH 3T3 cells expressing human EGF receptor)
Test: Binding of GST fusion proteins on glutathione-agarose beads to EGF receptor from HER14 cell lysates, immunoblot
Description: FIGS. 2A and 2B. Association of GST-Shc 1-209 with the EGF Receptor (EGFR). A, HER14 lysates from either EGF-stimulated (+) or unstimulated (−) cells (5×10^6 cells) were incubated with 3 μg of GST fusion protein immobilized on glutathione-agarose beads. The bound proteins were washed, subjected to SDS-PAGE, transferred to nitrocellulose and immunoblotted with anti-EGF receptor antibody, anti-C (anti-EGFR). HER14 lysate (4×10^5 cells) was run directly on the gel in lanes 5 and 6. B, unstimulated HER14 lysates (5×10^6 cells) were immunoprecipitated with anti-EGFR antibody (mAb 108). The immobilized receptor was then phosphorylated (+) by the addition of 5 mM MnCl2 and 50 μM ATP or left unphosphorylated (−) by adding MnCl2 alone. Bacterial lysates containing 5 μg of GST, GST-Grb7, and GST-Shc 1-209 were then diluted in 1 ml of 1% Triton X-100 lysis buffer, added to the immobilized receptor and incubated at 4° C. for 90 min. The bound proteins were washed and together with 40 μl of the post-binding supernatant separated by SDS-PAGE and transferred to nitrocellulose. The bound fractions (left panel) and supernatants (right panel) were immunoblotted with anti-GST. FIGS. 4A, 4B, 4C and 4D. Binding of Shc fragments to growth factor receptors. A, schematic diagram illustrating the Shc fragments used in binding studies. Full length murine p52^shc is indicated in (i) while (ii)-(vi) were generated as GST fusion proteins for use in receptor binding studies. B, association of various GST fusion proteins with activated EGF receptor (EGFR). Binding was performed as in FIG. 2A with the exception that all lysates were stimulated with EGF. All studies used 3 μg of fusion proteins except for the Shc SH2 where 10 μg was used. Immunoblotting was performed with anti-phosphotyrosine. C, binding of Shc fusion proteins to NIH 3T3 cells expressing a HER1/2 chimera. This chimera consists of the EGF receptor extracellular binding domain and the intracellular region of HER2/neu. After stimulation of these cells with EGF (200 ng/ml) lysates were prepared and binding as well as blotting studies were performed as in B using anti-phosphotyrosine antibody. D, binding of Shc 1-209 to TrkA. Beads containing 10 μg of GST fusion proteins Shc 1-209, phospholipase C-γ (PLC-γ) SH2 (contains both N and C SH2 domains), or GST alone were added to lysates from 2×10^7 PC12 cells stimulated with 50 ng/ml nerve growth factor (lanes 1, 2, and 4). The binding of the same amount of lysate to 2 μg of anti-TrkA antibody is shown as a positive control and to indicate the position of TrkA on the blot (lane 3). Otherwise, the binding and blotting were performed as in B using anti-phosphotyrosine antibody. […]

B1: Shc 1-209: Shc amino terminus, first 209 amino acids of murine p52Shc, generated as a GST fusion protein (protein, UniProt P98083 1-209, looked up, fragment)
chain: MDLLPPKPKYNPLRNESLSSLEEGASGSTPPEELPSPSASSLGPILPPLPGDDSPTTLCSFFPRMSNLKLANPAGGRLGPKGEPGKAAEDGEGSAGAALRDSGLLPLLQDMNKLSGGGGRRTRVEGGQLGGEEWTRHGSFVNKPTRGWLHPNDKVMGPGVSYLVRYMGCVEVLQSMRALDFNTRTQVTREAISLVCEAVPGAKGATRRR
modifications: GST fusion
notes: Shc amino terminus, first 209 amino acids of murine p52Shc, generated as a GST fusion protein
EGF receptor binding compared with the Shc SH2 domain (3 μg fusion protein vs 10 μg Shc SH2, EGF-stimulated lysates): comparable or superior
binding to EGF receptor (GST fusion protein, lysates of EGF-stimulated or unstimulated cells): bound only to the activated tyrosine-phosphorylated receptor
